We go through two substances from article PMC2191085.

The target in assay [1] is CD2 on human PBLs (human (endogenous in PBLs)) (UniProt P06729).
Assay [2] deals with CD2 on Jurkat cells (human (endogenous in Jurkat)) (UniProt P06729). The assay is described as follows: inhibition of cell rosetting.

“LFA3TIP (first domain-LFA-3/IgG1 fusion protein) (Fc fusion)” displayed an inhibition of T cell proliferation in response to HBsAg, LFA3TIP at 2 ug/ml in assay [1] of 85%.

Consider “multimeric phosphoinositol-linked LFA-3 (PI-LFA-3) (ligand)”, for which the fold lower concentration than LFA3TIP for inhibition of rosetting in assay [2] is 300 fold.
